From patent US20240376207A1 (JIANGSU HENGRUI PHARMACEUTICALS, published 2024) come the findings set out here.

The target in experiment [1] is T1, human PVRIG expressed on cells (human, UniProt Q6DKI7 41-326).
T1 sequence (looked up): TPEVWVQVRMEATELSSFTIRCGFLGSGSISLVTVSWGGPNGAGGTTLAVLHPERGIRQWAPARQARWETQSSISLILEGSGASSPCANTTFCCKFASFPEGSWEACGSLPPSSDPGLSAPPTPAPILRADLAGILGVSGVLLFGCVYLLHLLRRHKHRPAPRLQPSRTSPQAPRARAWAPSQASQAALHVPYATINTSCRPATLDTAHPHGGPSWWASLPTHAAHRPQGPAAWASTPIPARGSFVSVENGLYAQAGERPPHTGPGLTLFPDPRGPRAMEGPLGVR
In words: cell-based or functional assay.

Experiment [2] concerns the target T1, human PVRIG expressed on cells. In words: FACS, HEK293 cells overexpressing target. From the text: (§1) A flow cytometer (FACS) was used to detect binding properties of anti-PVRIG antibodies. A cell strain overexpressing human or cynomolgus monkey PVRIG was constructed, and after the addition of the antibody, the activity of the binding of the antibody to the antigen was detected by the addition of a secondary antibody.
(§2) The expression plasmid carrying human or cynomolgus monkey PVRIG gene sequence was transfected into HEK293 cells, and the over-expressing stable transfection monoclonal cell strain was obtained by antibiotic screening and infinite dilution. Overexpressing cells were seeded into a 96-well plate at 2×10⁵ cells/per well. The cells were centrifuged at 300 g for 5 min, the supernatant was then removed, 100 μL of the test antibody was added, and the mixture was incubated at 4° C. for 1 h. The mixture was centrifuged, the supernatant was removed, the plate was washed 3 times with 200 μL of wash buffer (PBS+2% FBS), and then 100 μL of an anti-human IgG secondary antibody (Invitrogen, A-11013) labeled with Alexa Fluor 488 diluted at 1:500 was added. The mixture was incubated at 4° C. for 1 h. The plate was centrifuged, and the supernatant was removed. The plate was washed 3 times with 200 μL of wash buffer (PBS+2% FBS). The cells were resuspended in 100 μL of PBS and tested on a flow cytometer (BD FACS Calibur or BD FACS Canto_II).
On the technique in general: In flow cytometry, cells or beads pass a laser one at a time.

The target of experiment [3] is T2, cynomolgus monkey PVRIG expressed on cells (cynomolgus monkey, UniProt A0A2K5WVV8 1-322).
T2 construct: whole, on cells; also called Monkey PVRIG FACS; cells overexpressing cynomolgus monkey PVRIG
T2 sequence: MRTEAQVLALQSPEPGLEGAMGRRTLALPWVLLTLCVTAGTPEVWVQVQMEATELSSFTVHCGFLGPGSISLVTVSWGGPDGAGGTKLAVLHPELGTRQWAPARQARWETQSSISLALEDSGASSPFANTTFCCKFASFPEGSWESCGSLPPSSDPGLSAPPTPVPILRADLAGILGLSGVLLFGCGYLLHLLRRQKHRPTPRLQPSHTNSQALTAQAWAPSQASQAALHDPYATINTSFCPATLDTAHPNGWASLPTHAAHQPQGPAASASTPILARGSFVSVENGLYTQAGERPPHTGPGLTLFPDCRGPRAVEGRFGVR
As to the kind of experiment: FACS, HEK293 cells overexpressing target.
Text: as §1, §2

The target of experiment [4] is T1, human PVRIG expressed on cells. In words: cell-based or functional assay. This is another data set of the same source.
In experiment [5] the target is T3, his-tagged human PVRIG (h-PVRIG-his) recombinant protein (human, UniProt Q6DKI7 41-171, limits assumed).
T3 construct: bought from Acrobiosystems; also called Human PVRIG-his; human PVRIG recombinant protein; not shown: his tag
T3 sequence (looked up): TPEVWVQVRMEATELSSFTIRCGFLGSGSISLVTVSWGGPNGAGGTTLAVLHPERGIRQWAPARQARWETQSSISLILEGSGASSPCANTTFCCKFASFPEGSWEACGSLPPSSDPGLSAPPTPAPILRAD
In words: ELISA, coated antigen. On the procedure:
ELISA assay was used to detect binding properties of anti-PVRIG antibodies. […] After the antibody was added, the activity of the binding of the antibody to the antigen was detected by adding a secondary antibody (HRP-conjugated anti-primary antibody Fc antibody) and HRP substrate TMIB.
(§3) A human, cynomolgus monkey, or mouse PVRIG protein (at a concentration of 1 μg/mL) was coated on a 96-well microplate at 100 μL per well, and incubated overnight at 4° C. The plate was washed three times with wash buffer at 250 μL per well. For each wash, the plate was shaken for 10 s to ensure adequate cleaning. A blocking solution (PBS+0.05% Tween20+1% BSA) was added at 300 μL/well, and the plate was incubated at room temperature for 1 h. The plate was washed three times with wash buffer at 250 μL per well. For each wash, the plate was shaken for 10 s to ensure adequate cleaning. Dilutions of the test anti-PVRIG antibodies were added at 100 μL/well. The plate was incubated at 37° C. for 1 h. The plate was washed three times with wash buffer at 250 μL per well. The […] anti-human IgG secondary antibody (Sigma, A8667) was added at 100 μL per well. The plate was incubated at 37° C. for 1 h. The plate was washed three times with wash buffer at 250 μL per well. TMB was added at 100 μL/well, and the plate was incubated in the dark for 15 min. 0.16 M sulfuric acid was added at 50 μL/well. The OD values at 450 nm were read by using a Thermo MultiSkanFc microplate reader, and the EC₅₀ values of the binding of the anti-PVRIG antibodies to PVRIG were calculated.

For experiment [6], the target named is cynomolgus monkey TIGIT recombinant protein (cynomolgus monkey, UniProt A0A7N9I9V4 89-209). As to the kind of experiment: ELISA, coated antigen. On the procedure:
as §3
(§4) Similarly to Examples 4, 5 and 6, the binding of humanized anti-PVRIG/TIGIT bispecific antibodies to human and cynomolgus monkey TIGIT and blocking of binding of human TIGIT to ligand were detected, where PVRIG protein was replaced with TIGIT and PVRL2 was replaced with PVR.
A general note: In an ELISA, binding on a coated surface is turned into a signal by an enzyme label.

In experiment [7] the target is T4, human TIGIT recombinant protein (human, UniProt Q495A1 22-141, limits assumed).
T4 construct: construct not described; also called human TIGT recombinant protein
T4 sequence (looked up): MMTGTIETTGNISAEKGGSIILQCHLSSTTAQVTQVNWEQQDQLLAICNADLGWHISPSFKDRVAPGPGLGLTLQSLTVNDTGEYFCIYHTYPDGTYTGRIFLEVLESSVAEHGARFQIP
As to the kind of experiment: ELISA, coated antigen. On the procedure:
as §3, §4

In experiment [8] the target is T1, human PVRIG expressed on cells. In words: FACS, cells overexpressing target. On the procedure: as §2
Binding of the humanized anti-PVRIG/TIGIT bispecific antibodies to human and cynomolgus monkey PVRIG and their blocking of the ligand of human PVRIG were detected according to the methods of Examples 4, 5 and 6.

Chain of cynomolgus monkey TIGIT recombinant protein (A0A7N9I9V4 entry or part of it): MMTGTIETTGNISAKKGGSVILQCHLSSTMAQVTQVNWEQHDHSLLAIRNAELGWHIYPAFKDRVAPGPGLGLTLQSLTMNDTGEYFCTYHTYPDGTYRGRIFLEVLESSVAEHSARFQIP

B1: anti-PVRIG antibody 151 (antibody, human IgG4 S228P, F234A L235A, V domains shown)
VH: HVQLVESGGGSVQAGGSLRLSCVASASGFTYRPYCMAWFRQAPGKEREAVAGIDIFGGTTYADSVKGRFTASRDNAGFSLFLQMNDLKPEDTAMYYCAAGDSPDGRCPPLGQGLNYWGQGTQVTVSS
notes: no light chain
The term EC50 denotes the concentration needed to bring the measured effect to its halfway point. For the molecule B1, in experiment [1], the “NK92 killing of K562, killing activity (%), 20 nM antibody” value (shortened to “NK92 killing … (%), 20 nM antibody”) was 35% and the “NK92 killing of K562, killing activity (%), 100 nM antibody” value (from here on “NK92 killing … (%), 100 nM antibody”) worked out at 33%. A half-maximal response in experiment [2] (EC50) required 0.01 nM. In addition, it took 2.23 nM to reach a half-maximal effect in experiment [3] (EC50). Further, in experiment [4], the “MLR IFNγ (pg/mL), 4 nM antibody” value was 1500 pg/mL; the “MLR IFNγ (pg/mL), 20 nM antibody” value was 2220 pg/mL; the “MLR IFNγ (pg/mL), 100 nM antibody” value came out at 1800 pg/mL. In experiment [5], the EC50 came out at 2.15 nM.

B2: anti-PVRIG antibody 39 (antibody, human IgG4 S228P, F234A L235A, V domains shown)
VH: QVQLVESGGGSVQAGGSLRLSCAASRYTSRTDCMGWFRQAPGKEREGVAHIDSDGIPRYVESVKGRFTISQDHAKNTLYLQMNSLKPEDSATYYCVVGFKFGDYCAPNDWGQGTQVTVSS
notes: no light chain
As to B2, in experiment [1], the “NK92 killing … (%), 20 nM antibody” value came to 32%. Further, the “NK92 killing … (%), 100 nM antibody” value in experiment [1] amounted to 30%. In addition, the figures for the 50% effective concentration (EC50) in experiment [2], in experiment [3] and in experiment [5] were 0.004 nM, 6.97 nM and 0.27 nM, respectively.

B3: positive antibody Tab5 (antibody, human IgG4 S228P, kappa, F234A L235A, V domains shown)
VH: EVQLVESGGGVVKPGGSLRLSCAASGFTFGTSSMNWVRQAPGKGLEWVAVISFDGTEIHYADSVKGRFTISRDNSKSTVFLQMNSLRPDDTALYYCAKGSGNIYFYSGMDVWGQGTTVTVSS
VL: DIQMTQSPSTLSASVGDRVTITCRAGQSISGWLAWFQQKPGKAPNLLIYETSTLESGVPSRFSGSGSGTEYTLTISSLQPDDFATYYCQQYYSYPLTFGQGTKVEIKR
notes: Variable regions of CPA.7.021 (WO2016134333A1) on human IgG4 (S228P/F234A/L235A/K447A) and human kappa constant regions
Regarding B3, the “NK92 killing … (%), 20 nM antibody” value in experiment [1] came out at 32%. For the same molecule, the “NK92 killing … (%), 100 nM antibody” value in experiment [1] amounted to 32%. Moreover, the binding result in experiment [6], in experiment [7] and in experiment [3] was “no binding” each time. Further, the EC50 amounted to 0.789 nM in experiment [8], 2.13 nM in experiment [2] and 2.86 nM in experiment [5]. Also, in experiment [4], the “MLR IFNγ (pg/mL), 4 nM antibody” value was 912 pg/mL. The “MLR IFNγ (pg/mL), 20 nM antibody” value in experiment [4] was 1420 pg/mL. In addition, the “MLR IFNγ (pg/mL), 100 nM antibody” value in experiment [4] was found to be 2350 pg/mL.

B4: anti-PVRIG antibody 30 (antibody, human IgG4 S228P, F234A L235A, V domains shown)
VH: HVQLVESGGGSVQAGGSLRLSCEASGYSYSGDCMGWFRRAPGKERDEGVATIDNAGRIKYADSVKGRFTISHGNGKYILYLQMNSLKPEDTDMYYCAAGWTFGGNCSPADWGQGTQVTVSS
notes: no light chain
Regarding B4, in experiment [1], the “NK92 killing … (%), 20 nM antibody” value worked out at 36% and the “NK92 killing … (%), 100 nM antibody” value worked out at 39%. Further, the EC50 in experiment [3] came out at 0.02 nM. In experiment [4], the “MLR IFNγ (pg/mL), 4 nM antibody” value came out at 1680 pg/mL; the “MLR IFNγ (pg/mL), 20 nM antibody” value turned out to be 1910 pg/mL; the “MLR IFNγ (pg/mL), 100 nM antibody” value turned out to be 1580 pg/mL. Besides, in experiment [5], the EC50 is 0.26 nM.

B5: anti-PVRIG antibody 38 (antibody, human IgG4 S228P, F234A L235A, V domains shown)
VH: QVQLVESGGGSVQAGGSLRLSCAASPSTYGPSDMAWFRQAPGKQREGVATISAAGRLTYYTDSVRGRFTISRDNAKNTMYLQMNSLKPEDTAMYYCAADFAGGSSLFADYKYWGQGTQVTVSS
notes: no light chain
On to B5, for which, in experiment [1], the “NK92 killing … (%), 20 nM antibody” value turned out to be 29% and the “NK92 killing … (%), 100 nM antibody” value is 27%. Further, the EC50 in experiment [2] was 0.24 nM. Further, the EC50 in experiment [3] was 0.34 nM. Besides, in experiment [4], the “MLR IFNγ (pg/mL), 4 nM antibody” value worked out at 1390 pg/mL; the “MLR IFNγ (pg/mL), 20 nM antibody” value was found to be 2020 pg/mL; the “MLR IFNγ (pg/mL), 100 nM antibody” value amounted to 2130 pg/mL. Also, the EC50 in experiment [5] came to 0.26 nM.

B6: humanized anti-PVRIG/TIGIT bispecific antibody 1708-20H5 (bispecific antibody, human IgG4 S228P, kappa)
heavy: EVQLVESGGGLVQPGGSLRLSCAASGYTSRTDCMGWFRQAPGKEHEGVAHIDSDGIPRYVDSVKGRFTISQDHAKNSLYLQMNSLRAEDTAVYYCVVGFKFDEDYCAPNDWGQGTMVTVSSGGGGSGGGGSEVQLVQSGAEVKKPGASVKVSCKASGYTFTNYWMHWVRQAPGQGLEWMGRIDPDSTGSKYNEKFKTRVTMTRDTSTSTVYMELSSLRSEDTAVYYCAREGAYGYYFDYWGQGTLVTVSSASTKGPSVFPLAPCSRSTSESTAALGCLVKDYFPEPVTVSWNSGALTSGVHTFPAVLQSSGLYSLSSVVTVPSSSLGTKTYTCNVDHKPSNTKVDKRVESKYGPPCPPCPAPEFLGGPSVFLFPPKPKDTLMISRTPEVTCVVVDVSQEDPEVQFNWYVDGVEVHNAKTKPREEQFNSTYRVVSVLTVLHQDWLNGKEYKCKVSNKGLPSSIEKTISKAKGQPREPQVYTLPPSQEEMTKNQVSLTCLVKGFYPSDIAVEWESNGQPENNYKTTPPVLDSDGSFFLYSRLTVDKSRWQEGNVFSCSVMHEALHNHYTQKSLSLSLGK
light: DIQMTQSPSSLSASVGDRVTITCRASENIYSYLAWYQQKPGKSPKLLIYNARTLAEGVPSRFSGSGSGTDFTLTISSLQPEDFATYYCQYHSGSPLPFGGGTKVEIKRTVAAPSVFIFPPSDEQLKSGTASVVCLLNNFYPREAKVQWKVDNALQSGNSQESVTEQDSKDSTYSLSSTLTLSKADYEKHKVYACEVTHQGLSSPVTKSFNRGEC
As for B6, the EC50 amounted to 0.112 nM in experiment [6], 0.145 nM in experiment [7] and 0.075 nM in experiment [8].

B7: humanized anti-PVRIG/TIGIT bispecific antibody 1708-30H2 (bispecific antibody, human IgG4 S228P, kappa)
heavy: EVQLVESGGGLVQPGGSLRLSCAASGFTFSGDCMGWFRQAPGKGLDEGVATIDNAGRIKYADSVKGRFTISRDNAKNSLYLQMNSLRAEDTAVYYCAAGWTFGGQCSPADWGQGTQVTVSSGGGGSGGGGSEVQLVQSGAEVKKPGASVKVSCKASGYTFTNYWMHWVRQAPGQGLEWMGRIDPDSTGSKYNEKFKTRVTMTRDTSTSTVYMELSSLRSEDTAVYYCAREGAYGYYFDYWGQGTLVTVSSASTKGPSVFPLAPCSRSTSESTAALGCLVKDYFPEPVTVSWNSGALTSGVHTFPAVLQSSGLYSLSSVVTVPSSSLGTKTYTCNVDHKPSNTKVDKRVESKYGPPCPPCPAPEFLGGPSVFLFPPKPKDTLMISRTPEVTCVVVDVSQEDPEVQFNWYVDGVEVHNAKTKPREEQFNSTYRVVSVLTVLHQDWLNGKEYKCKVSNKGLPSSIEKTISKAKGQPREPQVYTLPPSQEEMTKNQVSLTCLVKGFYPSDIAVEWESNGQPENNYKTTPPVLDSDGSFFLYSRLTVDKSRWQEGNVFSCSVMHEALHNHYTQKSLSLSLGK
light: DIQMTQSPSSLSASVGDRVTITCRASENIYSYLAWYQQKPGKSPKLLIYNARTLAEGVPSRFSGSGSGTDFTLTISSLQPEDFATYYCQYHSGSPLPFGGGTKVEIKRTVAAPSVFIFPPSDEQLKSGTASVVCLLNNFYPREAKVQWKVDNALQSGNSQESVTEQDSKDSTYSLSSTLTLSKADYEKHKVYACEVTHQGLSSPVTKSFNRGEC
Turning to B7, the EC50 in experiment [6] amounted to 0.114 nM; in experiment [7] it was 0.153 nM; in experiment [8], 0.056 nM.
